Reference: patent CN114230662A (ANYUAN MEDICINE SCIENCE AND TECH SHANGHAI LIMITED COMPANY, dated 2022)

Tests used:
[1] = biological target: T1, 人CD47抗原 (recombinant human CD47, 北京义翘神州生物技术有限公司, 货号12283-HCCH) (human, UniProt Q08722 19-139); assay: ELISA, coated human CD47 (0.2 μg/ml)
T1 construct: The catalogue number is printed only in 6.1 and 6.2; the construct is not described; also called 重组人CD47; human CD47 antigen

[2] = biological target: T2, human CD47 on cells (Raji-luc, CCRF-CEM, Jurkat, CHO/K1-hCD47) (human, UniProt Q08722 19-323); assay: flow cytometry on CHO/K1-hCD47 cells
T2 construct: whole, on cells; also called 细胞表面的CD47
T2 sequence (Q08722 19-323): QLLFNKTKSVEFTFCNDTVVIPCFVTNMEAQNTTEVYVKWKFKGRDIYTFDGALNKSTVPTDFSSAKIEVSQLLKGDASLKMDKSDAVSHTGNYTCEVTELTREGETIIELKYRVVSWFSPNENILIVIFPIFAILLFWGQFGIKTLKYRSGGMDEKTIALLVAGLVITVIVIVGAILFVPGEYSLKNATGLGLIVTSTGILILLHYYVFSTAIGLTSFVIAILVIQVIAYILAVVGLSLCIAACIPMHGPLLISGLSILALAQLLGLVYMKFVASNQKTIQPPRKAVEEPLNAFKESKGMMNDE

[3] = biological target: T2, human CD47 on cells (Raji-luc, …); assay: flow cytometry on Raji-luc and Jurkat cells; against control antibody AB12W2
[4] = biological target: T1, 人CD47抗原 (recombinant human CD47, …); assay: blocking ELISA on coated human CD47 (2.0 μg/ml); competitor biotin-labelled human SIRPα (0.2 μg/ml)
[5] = biological target: T2, human CD47 on cells (Raji-luc, …); assay: flow cytometry on CCRF-CEM cells
[6] = biological target: T3, 重组人CD47蛋白(His-tag) (Acro Biosystems, 货号CD-H5227) (human, UniProt Q08722 19-139); assay: Biacore T200 (called BLI in the filing), method as in example 2.5
T3 construct: Analyte (mobile phase) in the Biacore T200 measurements of 2.5 and 6.6; also called recombinant human CD47 protein (His-tag); not shown: His tag
T3 sequence (Q08722 19-139 limits assumed): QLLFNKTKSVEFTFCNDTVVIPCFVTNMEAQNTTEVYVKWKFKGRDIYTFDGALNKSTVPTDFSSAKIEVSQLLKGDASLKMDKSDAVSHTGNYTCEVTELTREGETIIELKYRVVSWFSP

T1 sequence (Q08722 19-139 limits assumed): as above

Row | Binder | EC50 [1] | EC50 [2] | EC50 lower than that of the control antibody AB12W2 [3] | EC50 [4] | EC50 [5] | binding result [6]
1 | AB12W6 (antibody, human IgG4 S228P, kappa, Humanized from Mo2A21331 by resurfacing) heavy: not shown light: DIKMTQSPSSKSASVGERVTITCQASQDINNYLSWFQQKPGKAPKTLIYRANRLMTGVPSRFSGSGSGQDFSLTISSLQPEDMGIYYCLQFDDFPLTFGQGTKLEIKRTVAAPSVFIFPPSDEQLKSGTASVVCLLNNFYPREAKVQWKVDNALQSGNSQESVTEQDSKDSTYSLSSTLTLSKADYEKHKVYACEVTHQGLSSPVTKSFNRGEC | 0.0128 µg/mL | 0.217 µg/mL | 50% | 1.29 µg/mL |  | 
2 | AB12W9 (antibody, Humanized from Mo2A21331 by resurfacing) heavy: EVKLVESGGGLVKPGGSLRLSCAASGFAFSTYDMSWVRQTPGKGLEWVASISTGGTYTYYPDSVKGRFTIFRDNARNTLYLQMNSLRAEDTALYYCARRPYYFDYWGQGTLLTVSSASTKGPSVFPLAPSSKSTSGGTAALGCLVKDYFPEPVTVSWNSGALTSGVHTFPAVLQSSGLYSLSSVVTVPSSSLGTQTYICNVNHKPSNTKVDKKVEPKSCDKTHTCPPCPAPELLGGPSVFLFPPKPKDQLMISRTPEVTCVVVDVSHEDPEVKFNWYVDGVEVHNAKTKPREEQYASTYRVVSVLTVLHQDWLNGKEYKCKVSNKALPAPIEKTISKAKGQPREPQVYTLPPSREEMTKNQVSLTCLVKGFYPSDIAVEWESNGQPENNYKTTPPVLDSDGSFFLYSKLTVDKSRWQQGNVFSCSVLHEALHNHYTQKSLSLSPGK light: DIKMTQSPSSKSASVGERVTITCQASQDINNYLSWFQQKPGKAPKTLIYRANRLMTGVPSRFSGSGSGQDFSLTISSLQPEDMGIYYCLQFDDFPLTFGQGTKLEIKRTVAAPSVFIFPPSDEQLKSGTASVVCLLNNFYPREAKVQWKVDNALQSGNSQESVTEQDSKDSTYSLSSTLTLSKADYEKHKVYACEVTHQGLSSPVTKSFNRGEC |  | 0.252 µg/mL |  |  | 0.162 µg/mL | 
3 | AB12W3 (antibody, human IgG4 S228P, kappa, V domains shown, Humanized from Mo2A1621 by resurfacing; Expressed in CHO cells) VH: EVQLVQSGAEVVKPGATVKISCKASGYSFTDYFMTWMKQSPGKSLEWIGRINPYNGETFYNQKFQGKATLTVDKSSTTAHMELSSLRSEDSAVYYCGRGGTAGTDYWGQGTLLTVSS VL: DVLLTQSPLSLPVTLGQPASISCRSSQSVVRSNGNTYLEWYLQKPGQSPRLLINKVSRRFSGVPDRFSGSGSGSEFTLKISRVEAEDVGIYYCFQGSHVPYTFGQGTKLEIKR | 0.0112 µg/mL | 0.461 µg/mL |  | 1.17 µg/mL |  | 
4 | AB12W2 (antibody, V domains shown, Humanized anti-human CD47 control antibody with the variable regions of Celgene's CC-90002 (per CN104271757B); it was detected with anti-human IgG; also called CC-90002 (source of the variable regions); 对照抗体AB12W2) VH: QMQLVQSGAEVKKTGSSVKVSCKASGFNIKDYYLHWVRQAPGQALEWMGWIDPDQGDTEYAQKFQDRVTITRDRSMSTAYMELSSLRSEDTAMYYCNAAYGSSSYPMDYWGQGTTVTV VL: NIQMTQSPSAMSASVGDRVTITCKASQDIHRYLSWFQQKPGKVPKHLIYRANRLVSGVPSRFSGSGSGTEFTLTISSLQPEDFATYYCLQYDEFPYTFGGGTKVEIK | 0.0092 µg/mL |  |  | 1.02 µg/mL | 0.157 µg/mL | 
5 | AB12W4 (antibody, human IgG4 S228P, kappa, V domains shown, Humanized from Mo2A11971 by resurfacing) VH: QIQLVQSGAEVVKPGASVKISCKASGYTFTDYYINWVKQAPGQRLEWIGWIYPGSGNTKHNQKFQGKATLTVDTSSSTAYMELSSLRSEDTAVYFCARRGTYYYGSSSDGFPYWGQGTLVTVSS VL: QIVLTQSPATMSASPGERVTISCRASSSVYYMYWYQQKPGQSPRPWIYRTSNLATGVPARFSGSGSGTSYSLTISSMEPEDFATYYCQQYHSYPLTFGQGTKLEIKR |  |  |  |  |  | binds
